Values quoted from earlier work as cited in patent publication US20260069559A1, “COMBINATIONS OF RXFP1 MODULATORS AND SGLT2 INHIBITORS” (ASTRAZENECA AB, priority 2022, published 2026).

Settings: after receiving serelaxin intravenously; fraction of patients

serelaxin
patients who experienced a significant blood pressure drop (>40 mm Hg): approximately one third
